Source: PMC8988209, “AAV‐mediated delivery of an anti‐BACE1 VHH alleviates pathology in an Alzheimer's disease model” (EMBO Molecular Medicine, 2022)

Experiments:
[1] = target: purified human BACE1 ectodomain (human) (UniProt P56817); experiment: SPR; BIAcore; 2,500 RU purified BACE1 ectodomain amine-coupled to a CM5 chip; VHHs injected at 0–500 nM, 25°C; citrate buffer with 150 mM NaCl, 3.5 mM EDTA, 0.005% Tween-20 at pH 4.5
[2] = target: purified human BACE1 ectodomain (human) (UniProt P56817); experiment: SPR; BIAcore; 2,500 RU purified BACE1 ectodomain amine-coupled to a CM5 chip; VHHs injected at 0–500 nM, 30 μl/min, 25°C; HBS buffer (10 mM Hepes (pH 7.5), 150 mM NaCl, 3.5 mM EDTA, 0.005% Tween-20); table gives pH 7.0
[3] = target: human BACE1 (amino acids 1–460) fused to the constant region of human IgG1 (hBACE1:Fc), wild type (human) (UniProt P56817)
human BACE1 (amino acids 1–460) fused to the constant region of human IgG1 (hBACE1:Fc), wild type (human), sequence (P56817 22-460): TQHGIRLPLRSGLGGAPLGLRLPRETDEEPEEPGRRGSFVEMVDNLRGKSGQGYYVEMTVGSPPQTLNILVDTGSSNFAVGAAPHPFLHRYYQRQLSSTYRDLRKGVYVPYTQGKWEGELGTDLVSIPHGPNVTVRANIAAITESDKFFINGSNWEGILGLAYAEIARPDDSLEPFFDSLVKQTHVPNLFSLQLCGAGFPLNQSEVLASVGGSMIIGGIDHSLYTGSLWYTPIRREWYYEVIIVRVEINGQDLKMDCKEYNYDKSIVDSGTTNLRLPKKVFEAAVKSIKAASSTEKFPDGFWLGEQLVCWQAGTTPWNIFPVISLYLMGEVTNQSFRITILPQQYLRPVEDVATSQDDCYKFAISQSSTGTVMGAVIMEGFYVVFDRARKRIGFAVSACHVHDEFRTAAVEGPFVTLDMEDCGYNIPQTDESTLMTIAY

biotinylated mouse BACE1 [4] = target: T1, biotinylated mouse BACE1 (Mus musculus, UniProt P56818, biotin); experiment: cell-based or functional assay
T1 sequence (P56818 46-501): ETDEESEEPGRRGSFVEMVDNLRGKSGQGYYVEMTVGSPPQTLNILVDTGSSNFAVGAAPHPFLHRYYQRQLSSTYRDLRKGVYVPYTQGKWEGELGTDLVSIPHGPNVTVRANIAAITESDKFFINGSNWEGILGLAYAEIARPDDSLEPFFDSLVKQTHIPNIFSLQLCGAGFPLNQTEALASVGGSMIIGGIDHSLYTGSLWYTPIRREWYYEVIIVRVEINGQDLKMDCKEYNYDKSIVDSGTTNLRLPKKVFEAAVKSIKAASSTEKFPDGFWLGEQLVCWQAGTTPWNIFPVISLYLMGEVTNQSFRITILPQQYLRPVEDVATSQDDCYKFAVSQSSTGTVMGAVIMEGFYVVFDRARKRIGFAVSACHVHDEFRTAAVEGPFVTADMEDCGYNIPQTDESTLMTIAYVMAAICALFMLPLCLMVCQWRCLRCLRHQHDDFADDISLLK

[5] = target: human BACE1 (amino acids 1–460) fused to the constant region of human IgG1 (hBACE1:Fc), wild type (Homo sapiens, UniProt P56817); experiment: cell-based or functional assay
human BACE1 (amino acids 1–460) fused to the constant region of human IgG1 (hBACE1:Fc), wild type, sequence (P56817 22-460): as the sequence (P56817 22-460) above

biotinylated mouse BACE1 [6] = target: T1, biotinylated mouse BACE1; experiment: BLI; OctetRED96; biotinylated human or mouse BACE1 immobilised at 1 μg/ml on streptavidin biosensors; serial dilutions of VHH-B9 (table: Conc. 100 nM); Kinetic Buffer, 25°C, 1,000 rpm; 1:1 fitting model; conditions: both partners purified
biotinylated human BACE1 = target: T2, biotinylated human BACE1 (Homo sapiens, UniProt P56817, biotin); experiment: as above; conditions: both partners purified
T2 construct: human BACE1, biotinylated and immobilised on streptavidin biosensors; Probably an ectodomain preparation; also called hBACE1; biotinylated BACE1
T2 sequence (P56817 46-501): as the sequence (P56818 46-501) above, with S6P, I162V, I165L, T180S, A182V, V340I, A393L, H443Q counted along it

mouse BACE2 = target: T3, mouse BACE2 (Mus musculus, UniProt Q9JL18); experiment: as above; conditions: both partners purified
T3 construct: mouse BACE2; also called mBACE2
T3 sequence (Q9JL18 20-514): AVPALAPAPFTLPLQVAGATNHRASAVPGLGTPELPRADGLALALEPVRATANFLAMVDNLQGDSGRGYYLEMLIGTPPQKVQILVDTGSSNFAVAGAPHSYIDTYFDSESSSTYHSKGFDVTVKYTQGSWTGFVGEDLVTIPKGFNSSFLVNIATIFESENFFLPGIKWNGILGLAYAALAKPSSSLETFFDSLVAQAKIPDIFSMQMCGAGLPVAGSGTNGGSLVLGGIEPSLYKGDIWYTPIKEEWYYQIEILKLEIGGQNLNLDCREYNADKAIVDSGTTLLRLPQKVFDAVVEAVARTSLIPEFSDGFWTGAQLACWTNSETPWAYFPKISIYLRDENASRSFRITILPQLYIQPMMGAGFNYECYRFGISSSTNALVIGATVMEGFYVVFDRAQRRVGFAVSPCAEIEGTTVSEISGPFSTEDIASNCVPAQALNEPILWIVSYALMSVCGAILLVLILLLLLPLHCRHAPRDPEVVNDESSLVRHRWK

purified human BACE1 ectodomain (human), sequence (P56817 22-457): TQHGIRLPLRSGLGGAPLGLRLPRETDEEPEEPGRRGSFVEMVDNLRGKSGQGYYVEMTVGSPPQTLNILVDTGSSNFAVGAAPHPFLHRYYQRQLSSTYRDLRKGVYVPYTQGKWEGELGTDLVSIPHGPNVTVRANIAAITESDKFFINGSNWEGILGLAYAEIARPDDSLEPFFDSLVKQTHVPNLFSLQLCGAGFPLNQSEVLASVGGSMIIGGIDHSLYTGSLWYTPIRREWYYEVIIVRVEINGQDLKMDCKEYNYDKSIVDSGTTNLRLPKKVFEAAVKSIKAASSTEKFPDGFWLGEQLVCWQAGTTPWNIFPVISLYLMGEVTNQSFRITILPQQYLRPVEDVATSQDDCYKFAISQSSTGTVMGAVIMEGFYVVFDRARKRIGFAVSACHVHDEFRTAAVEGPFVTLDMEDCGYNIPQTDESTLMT

| Binder | Kd [1] [nM] | koff [1] [s⁻¹] | kon [1] [M⁻¹ s⁻¹] | Kd [2] [nM] | koff [2] [s⁻¹] | kon [2] [M⁻¹ s⁻¹] | EC50 of inhibition of hBACE1:Fc in the in vitro APP cleavage assay (MBP-C125sw substrate, cleavage product by ELISA) [3] [nM] | EC50 of lowering Aβ1-40 (ELISA of conditioned medium) in primary mouse neurons expressing human APP695, VHH-B9 from 10 µM to 0.7 nM (biotinylated mouse BACE1 [4]) [nM] | EC50 of inhibition of hBACE1:Fc in the in vitro APP cleavage assay (MBP-C125sw substrate, cleavage product by ELISA) [5] [nM] | Kd (biotinylated mouse BACE1 [6]) [nM] | koff (biotinylated mouse BACE1 [6]) [s⁻¹] | kon (biotinylated mouse BACE1 [6]) [M⁻¹ s⁻¹] | Kd (biotinylated human BACE1) [nM] | koff (biotinylated human BACE1) [s⁻¹] | kon (biotinylated human BACE1) [M⁻¹ s⁻¹] | binding result (mouse BACE2) |
| --- | --- | --- | --- | --- | --- | --- | --- | --- | --- | --- | --- | --- | --- | --- | --- | --- |
| VHH‐4A2 (VHH) VHH: QVQLQESGGGLVQPGGSLRLSCAASGFTFETQYMTWVRQAPGKGPEYVSSINSGGTIKYYANSSVKGRFTISRDNAKNTLYLQMNNLRPEDTAIYYCQLGQWAGVGAASSRGQGTQVTVSS | 21.2 | 0.00841 | 397000 | 48.2 | 0.0231 | 479000 | 789 | – | – | – | – | – | – | – | – | – |
| VHH‐10C4 (VHH) VHH: QVQLQESGGGSVQAGGFLRLSCAASGYTYSTCSMAWYRQAPGKERELVSSIRNDGSTAYADSVKGRFTISQDNAKNTVYLQMNSLKPEDTAMYYCNIRIGVGPGGTCSIYAPYWGEGTQVTVSS | 27.7 | 0.0125 | 451000 | 74.7 | 0.00792 | 106000 | 112 | – | – | – | – | – | – | – | – | – |
| VHH‐B9 (VHH, Recombinant form used in SPR, BLI, dot blot (detected by anti-His) and the cleavage assays; source: E. coli WK6 (pHEN6), periplasmic extract, purified (Ni-NTA, Superdex-75); not shown: His6, C-terminal, kept) VHH: DVQLQESGGGSVQAGGSLRLSCAASEYTYGYCSMGWYRQAPGKERELVSTITSDGSTSYVDSVKGRFTISQDNAKNTVYLQMNSLKPEDTAKYYCYTKTCANKLGAKFISWGQGTQVTVSS | 1.9 | 0.00013 | 662000 | 3.7 | 0.00098 | 267000 | – | 85.4 | 99.2 | 3.2 | 0.00072 | 224000 | 2.9 | 0.000443 | 153000 | no binding (tested: 100 nM) |
